This note sets out measurements from patent US20160053277A1, “Compositions Having Dicamba Decarboxylase Activity and Methods of Use” (PIONEER HI-BRED INTERNATIONAL, INC., priority 2013, published 2016).

A short description of series [1]: 14C assay with IPTG-induced recombinant E. coli cells: 14CO2 captured from [14C]-carboxyl-labeled dicamba. The following applies: for Enzymatic Detection level: dicamba decarboxylation activity of the protein of the given SEQ ID NO, High / Low / No; for Dicamba Decarboxylase Activity: induced recombinant E. coli cells, [14C]-carboxyl-labeled dicamba, 14CO2 capture.

Series [2] can be described thus: Saturation mutagenesis of SEQ ID NO:109: dicamba decarboxylation activity of point mutants (carbon dioxide released). The following applies: decarboxylation activity (carbon dioxide released) of point mutant compared with unmutated backbone protein; backbone SEQ ID NO: 109.
Series [3] can be described thus: Shuffled variant libraries: 14CO2 capturing assay in 384-well format.
[4] abbreviates: decarboxylation activity (carbon dioxide released) compared with unmutated backbone protein SEQ ID NO 133 (DDEC0201).
The mark [5] stands for this setting: decarboxylation activity (carbon dioxide released) compared with unmutated backbone protein SEQ ID NO 380 (DDEC0301).

B1: 25 (protein, listed as Acidovorax avenae)
chain: MAQGKIGLEEHFAIPETLQDSAGFVPGDYWKELSLRLLDIHERRLREMDENGMEMMILSLNAPAVQAIPDTKKAVEIAVRANDFLAEQVARRPDRFQAFAALPMQDPDLATRELERCMQDLGFRGALVNGFSQVGTPENVVYYDAPQYGDFWAAVERLDAPFYLHPRNPIASWAQIYQGHPWLMGPTWAFAQETAVHALRLMASGLFDRHPGLRIILGHLGEGLPYNMWRVDHRNAWVDMPKGYPAKRKLCDYFHENFYLTTSGNFRTQTLIDALLEVGADRILFSTDWPFENVDHAAHWFDDAAISEADRLKIGRTNALSLFKLPQG
Take B1: in series [1], the “Enzymatic Detection level” value is “Low” and the “Dicamba Decarboxylase Activity” value is “Low”. Besides, the “Fold Activity” value in series [2] was determined as 1.

B2: 123 (protein)
chain: MAQGKVALEEHFAIPETLQDSAGFVPGDYWKELQHRLLDIQDTRLKLMDAHGIETMILSLAAPAVQAIPDRRKAIEIARRANDVLAEECAKRPDRFLAFAALPLQDPDAATEELQRCVNDLGFVGALVNGFSQEGDGQTPLYYDLPQYRPFWGEVEKLDVPFYLHPRNPLPQDSRIYDGHPWLLGPTWAFAQETAVHALRLMASGLFDEHPRLNIILGHMGEGLPYMMWRIDHRVAWVKLPPRYPAKRRFMDYFNENFHITTSGNFRTQTLIDAILEIGADRILFSTDWPFENIDHASDWFNATSIAEADRVKIGRTNARRLFKLDGA
modifications: Dicamba decarboxylase variant clone: S03902153
B2: the “Enzymatic Detection level” value in series [1] is recorded as “High”. Also, the “Fold Activity” value in series [2] came out at 1.3.

B3: 278 (protein)
chain: MAQGKVALEEHFAIPETLQDSAGFVPGDYWKELQHRLLDIQDTRLKLMDAHGIETMILSLAAPAVQAIPDRRKAIEIARRANDFLAEECAKRPDRFLAFAALPLQDPDAATEELQRCVNDLGFVGALVNGFSQEGDGQTPLYYDLPQYRPFWGEVEKLDVPFYLHPRNPLPQDSRIYDGHPWLLGPTWAFAQETAVHALRLMASGLFDEHPRLNIILGHMGEGLPYMMYRIDHRIAWVHEPPRYPAKRRFMDYFNENFHITTSGNFRTQTLIDAILEIGADRILFSTDWPFENIDHAAAWFNATSIAEADRLKIGRTNARRLFKLDGA
modifications: Dicamba decarboxylase variant
In the case of B3, in series [3] (setting [4]), the “Fold Activity” value is given as 1.2.

B4: 276 (protein)
chain: MAQGKVALEEHFAIPETLQDSAGFVPGDYWKELQHRLLDIQDTRLKLMDAHGIETMILSLAAPAVQAIPDRRKAIEIARRANDLLAEECAKRPDRFLAFAALPMQDPDAATEELQRCVNDLGFVGALVNGFSQEGDGQTPLYYDLPQYRPFWGEVEKLDVPFYLHPRNPLPQDSRIYDGHPWLLGPTWAFAQETAVHALRLMASGLFDEHPRLNIILGHMGEGLPYMMYRIDHRIAWVKLPPRYPAKRRFMDYFNENFHITTSGNFRTQTLIDAILEIGADRILFSTDWPFENIDHAADWFNATSIAEADRVKIGRTNARRLFKLDGA
modifications: Dicamba decarboxylase variant
On to B4, for which the “Fold Activity” value in series [3] (setting [4]) is given as 1.0.

B5: 275 (protein)
chain: MAQGKVALEEHFAIPETLQDSAGFVPGDYWKELQHRLLDIQDTRLKLMDAHGIETMVLSLAAPAVQAIPDRRKAIEIARRANDMLAEECAKRPDRFLAFAALPLQDPDAATEELQRCVNDLGFVGALVNGFSQEGDGQTPLYYDLPQYRPFWGEVEKLDVPFYLHPRNPLPQDSRIYDGHPWLLGPTWAFAQETAVHALRLMASGLFDEHPRLNIILGHMGEGLPYMMYRIDHRIAWVHEPPRYPAKRRFMDYFNENFHITTSGNFRTQTLIDAILEIGADRILFSTDWPFENIDHAAAWFNATSIAEADRVKIGRTNARRLFKLDGA
modifications: Dicamba decarboxylase variant
B5: in series [3] (setting [4]), the “Fold Activity” value is on record as 1.0.

B6: 274 (protein)
chain: MAQGKVALEEHFAIPETLQDSAGFVPGDYWKELQHRLLDIQDTRLKLMDAHGIETMILSLAAPAVQAIPDRRKAIEIARRANDFLAEECAKRPDRFLAFAALPMQDVDAATEELQRCVNDLGFVGALVNGFSVEGDGQTPLYYDLPQYRPFWGEVEKLDVPFYLHPRNPLPQDSRIYDGHPWLLGPTWAFAQETAVHALRLMASGLFDEHPRLNIILGHLGEGLPYMMYRIDHRIAWVKLPPRYPAKRRFMDYFNENFHITTSGNFRTQTLIDAILEIGADRILFSTDWPFENIDHAADWFNATSIAEADRVKIGRTNARRLFKLDLD
modifications: Dicamba decarboxylase variant
With B6, the “Fold Activity” value in series [3] (setting [4]) worked out at 1.0.

B7: 279 (protein)
chain: MAQGKVALEEHFAIPETLQDSAGFVPGDYWKELQHRLLDIQDTRLRLMDAHGIETMILSLAAPAVQAIPDRRKAIEIARRANDMLAEECAKRPDRFLAFAALPLQDPDAATEELQRCVNDLGFVGALVNGFSQEGDGQTPLYYDLPQYRPFWGEVEKLDVPFYLHPRNPLPQDSRIYDGHPWLLGPTWAFAQETAVHALRLMASGLFDEHPRLNIILGHLGEGLPYMMYRIDHRIAWVHEPPRYPAKRRFMDYFNENFHITTSGNFRTQTLIDAILEIGADRILFSTDWPFENIDHAADWFNATSIAEADRLKIGRTNARRLFKLDGD
modifications: Dicamba decarboxylase variant
In the case of B7, the “Fold Activity” value in series [3] (setting [4]) was 0.9.

B8: 277 (protein)
chain: MAQGKVALEEHFAIPETLQDSAGFVPGDYWKELQHRLLDIQDTRLKLMDKHGIETMILSLAAPAVQAIPDRRKAIEIARRANDMLAEECAKRPDRFLAFAALPLQDPDAATEELQRCVNDLGFVGALVNGFSQEGDGQTPLYYDLPQYRPFWGEVEKLDVPFYLHPRNPLPQDSRIYDGHPWLLGPTWAFAQETAVHALRLMASGLFDERPRLNIILGHMGEGLPYMMYRIDHRIAWVHEPPRYPAKRRFMDYFNENFHITTSGNFRTQTLIDAILEIGADRILFSTDWPFENIDHATAWFNATSIAEADRVKIGRTNARRLFKLDGA
modifications: Dicamba decarboxylase variant
Take B8: the “Fold Activity” value in series [3] (setting [4]) came out at 0.9.

B9: 27 (protein, listed as Aspergillus oryzae)
chain: MALGKIALEEAFALPRFEEKTRWWASLFSTDAETHVKEITDINKIRIEHADKHGVGYQILSYTAPGVQDIWDPVEAQALAVEINDYIAEQVRVNPDRFGAFATLSMHNPKEAADELRRCVEKYGFKGALVNDTQRAGPDGDDMIFYDNADWDIFWQTCTELDVPFYMHPRNPTGTIYEKLWADRKWLVGPPLSFAHGVSLHVLGMVTNGVFDRHPKLQIIMGHLGEHVPFDMWRINHWFEDRKKLLGLAETCKKTIRDYFAENIWITTSGHFSTTTLNFCMAEVGSDRILFSIDYPFETFSDACEWFDNAELNGTDRLKIGRENAKKLFKLDSYKDSSA
Regarding B9, in series [1], the “Enzymatic Detection level” value was “No” and the “Dicamba Decarboxylase Activity” value is listed as “No”. The “Fold Activity” value in series [2] was determined as 1.

B10: 23 (protein, listed as Aplysina aerophoba)
chain: MAIDIDARSQPGLETARRAMSRRDFLGGAAAFGITAAATTALPASTAAGEEEDLFLLGLEEHFATAELRRLNGIQFPQGTPRFDINDVGAGRIADMDAAGIDIQVLSALTPGAQNLPGAEGVAYARRLNSWVAHEVIPAYPGRFRAFATLPLSEPQAAADELEYAVRELGFLGCMTYGAVDGKFLDHADFVPVLARAETLDVPIYIHPNWASPQVMDTYYNGLGNEWVSRVLSGAGYGWHQEVALQCLRMIASGVFDRFPRLQIIVGHMGEGLPFFYWRFGDDLARITADTLEKPVQQYFHDNFWITTSAFFRDELLRLVLSVMGEDRVMFAVDYPFVSNKVGADWFRAVDLPRNVKEKIAHKNAERLLKIGPF
Take B10: in series [1], the “Enzymatic Detection level” value was “Low” and the “Dicamba Decarboxylase Activity” value is “Low”. Further, the “Fold Activity” value in series [2] worked out at 1.5.

B11: 24 (protein)
chain: MALGKVVLEEAYERPNMKEKSNHEAGLYIAPNDRPRYMRQINDINQERLKLADAHGVGYTIISLTVPGIQGIFDKTEAERVATETNNWAAEQIKNHRDRLGAFACLSMHDPAQAANELRRCVQELGFHGALLCSFQHAGPDGETYLFYDQPKYDVFWKALTELDVPLYIHPAAPTGSILERLYAQRPALIGPPLSFANDVSLHTLGIISNGVFDRFPNLKIIIGHLGEHIPFDFWRIDHWFRDVKKPIADEEGRVMAQKSLYHYFKHNIWLTTSGHFSTPTLKYVVNEIGVDRVLFSVDYPYETTESGCNWWDHDKDAIVEAVGGVDNYYAIGRENAKKLLRLDKFHDSDAR
modifications: Aspergillus niger
Regarding B11, in series [1], the “Enzymatic Detection level” value is “Low” and the “Dicamba Decarboxylase Activity” value is given as “Low”. Also, in series [2], the “Fold Activity” value was determined as 1.6.

B12: 396 (protein)
chain: MAQGKVALEEHFAIPETLQDAAGFVPGEYWKELQHRLLDIQDTRLKLMDKHEIETMILSLAAPAVQAIPDRRKAIEIARRANDFLAEEVAKRPDRFLAFAALPLQDPDAATEELQRTVNDLGFVGAMVNGFSQEGDGQTPLYYDLPQYRPFWGEVEKLDVPFYLHPRNPLPQDSRIYDGHPWLLGPTWAFAQETAVHALRLMASGLFDEHPRLNIILGHMGEGLPYMMYRIDHRIGWVKAPPDYAAKRRFMDYFNENFHITTSGNFRTQTLIDAILEIGADRILFSTDWPFENIDHAADWFNATSIAEADRVKIGRTNARRLFKLDGR
modifications: Dicamba decarboxylase variant
Turning to B12, in series [3] (setting [5]), the “Fold Activity” value is listed as 1.9.

B13: 397 (protein)
chain: MAQGKVALEEHFAIPETLQDAAGFVPGDYWKELQHRLLDIQDTRLKLMDKHEIETMILSLAAPAVQAIPDRRKAIEIARRANDFLAEEVAKRPDRFLAFAALPLQDPDAATEELQRCVNDLGFVGAMVNGFSQEGDGQTPLYYDLPQYRPFWGEVEKLDVPFYLHPRNPLPQDSRIYDGHPWLLGPTWAFAQETAVHALRLMASGLFDEHPRLNIILGHLGEGLPYMMYRIDHRIAWVKAPPDYAAKRRFMDYFNENFHITTSGNFRTQTLIDAILEIGADRILFSTDWPFENIDHAADWFNATSIAEADRVKIGRTNARRLFKLDLR
modifications: Dicamba decarboxylase variant
Regarding B13, in series [3] (setting [5]), the “Fold Activity” value came to 1.8.
